Experimental data from patent US20230257457A1 (published 2023).

Target: T1, thioredoxin (Escherichia coli (strain K12), UniProt P0AA25 2-109 = thioredoxin)
T1 construct: Negative control antigen; also called Trx; TrxA
Experiment: ELISA (FIG. 64)

T1 sequence (P0AA25 2-109 limits assumed): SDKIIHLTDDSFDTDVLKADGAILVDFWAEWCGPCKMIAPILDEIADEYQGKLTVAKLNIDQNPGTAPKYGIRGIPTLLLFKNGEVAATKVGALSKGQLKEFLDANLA

B1: mouse human chimeric anti-R273H p53 antibody clone MH 13E4 (antibody, human IgG1, V domains shown)
VH: EVQLLETGGDLVTPGGSLKLSCAASGFSFSDYYMYWVRQTPEKRLEWVATISVGGTYTFYSDNVKGRFVISRDNARKNLHLEMNSLKSEDAAMYYCVRDGNDGKFLGYWGQGTFVTVTV
VL: DIVMTQSPLSLPVNLGDQVSLSCRSSQSIVHNNGDTYLEWYLQKPGQSPKLLIYKVSNRFSGVPDRFSGSGSGTDFTLKISRVEAEDLGIYYCFQGSHLPLTFGSGTKLELK
notes: Mouse Fv with human IgG1 constant region; also called chimeric 13E4
- binding result: no binding (tested: 1 ng/µl)
